{
  "source": "paper PMC4559223",
  "about": "(Journal of molecular biology, 2008)",
  "key": {"crystal structure": {"target": "the molecule itself", "assay": "crystal structure"}, "native gel or EMSA": {"target": "the molecule itself", "assay": "native gel or EMSA"}},
  "data": [
    {"protein": "mouse GATA3 C-terminal zinc finger (amino acid residues 308-370) (domain or fragment, UniProt P23772 308-370, looked up) SAARRAGTSCANCQTTTTTLWRRNANGDPVCNACGLYYKLHNINRPLTMKKEGIQTRNRKMSS", "values": [
      {"measurement": "binding result", "setting": "crystal structure", "result": "binds"}
    ]},
    {"protein": "mouse GATA3 double zinc finger fragment (amino acids 260-370) (domain or fragment) not shown", "values": [
      {"measurement": "binding result", "setting": "native gel or EMSA", "result": "binds"}
    ]}
  ]
}
